{"source": "patent US10206886B2", "about": "“Lipid nanoparticles for wound healing” (Praxis Biopharma Research Institute, priority 2013, dated 2019)", "key": {"[1]": {"system": "Balb/C 3T3 fibroblast", "assay": "Proliferation assay with rhEGF-loaded nanoparticles (CCK-8)", "type": "cell-based", "conditions": "15 ng/ml rhEGF, after 48 hours and 72 hours, FIG. 1", "procedure": "24-well plate was used for the proliferation assay. 35000 Balb/C 3T3 fibroblast resuspended in 1 ml of completed culture medium (DMEM supplemented with 10% FCS) were seeded in each well. After 8 hours of incubation, the medium was replaced by 1 ml of 0.2% FCS supplemented DMEM and cells were incubated overnight. Then, medium was replaced by 1 ml of: (i) 0.2% FCS-supplemented DMEM, (ii) 15 ng/ml of free rhEGF in 0.2% FCS-supplemented DMEM, (iii) empty SLN in 0.2% FCS-supplemented DMEM, (iv) 15 ng/ml of rhEGF-loaded SLN (rhEGF-SLN) in 0.2% FCS-supplemented DMEM, (v) empty NLC in 0.2% FCS-supplemented DMEM and (vi) 15 ng/ml of rhEGF-loaded NLC (rhEGF-NLC) in 0.2% FCS-supplemented DMEM.\nThe cells were cultured under the same conditions for 24 hours, 48 hours and 72 hours. The experiments were performed in triplicate. After the different incubation intervals, 100 μl of CCK-8 (Sigma-Aldrich, Saint Louise, USA) was added to each well (Zhou, Y., Qian, M., Liang, Y., Liu, Y., Yang, X., Jiang, T., Wang, Y., 2011. Effects of Leukemia Inhibitory Factor on Proliferation and Odontoblastic Differentiation of Human Dental Pulp Cells. J. Endod. 37, 819-824). After 4 hours of incubation, absorbance was read at 450 nm and at 650 nm as the reference wavelength. The absorbance was directly proportional to the number of living cells in culture."}, "[2]": {"system": "db/db mice", "assay": "In vivo wound healing, wound closure (wound area)", "conditions": "75 μg rhEGF intralesionally (free rhEGF twice a week; rhEGF-MS once)"}, "[3]": {"system": "db/db mice", "assay": "Histological estimation of wound healing: inflammation score (Cotran scale 0-4)", "type": "in vivo", "conditions": "75 μg rhEGF intralesionally (free rhEGF twice a week; rhEGF-MS once)"}, "[4]": {"system": "db/db mice", "assay": "Histological estimation of wound healing: re-epithelization score (Sinha criteria 0-4)", "type": "in vivo", "conditions": "75 μg rhEGF intralesionally (free rhEGF twice a week; rhEGF-MS once), scale 0-4"}, "[5]": {"system": "Large White pigs", "assay": "In vivo wound healing in pigs, serial analysis of healed wounds (closure above 95%)", "conditions": "rhEGF-NLC 20 μg topically, free rhEGF 75 μg intralesionally, twice a week", "excerpt": "All the protocols and procedures used were previously approved by the Institutional Animal Care and Use Committee from the Jesús Usón Minimally Invasive Surgery Centre (JUMISC). Six female Large White pigs, with a mean weight of 26.82±2.90 kg at the beginning of the study, distributed in individual pens of 2.90 m×1.35 m were used. All the animals of the study were randomly distributed in acclimated rooms, where the following housing conditions were established: 12-hour light-dark cycle, temperature between 20 and 25° C., eight air changes per hour with HEPA-filtered ventilation and relative humidity between 50 and 70%. As pen environmental enrichment, hanging chains and chewing rubber toys were installed as chewable elements. After an acclimatization period, the animals were identified by ear tag codes to be included in the study. […]\nWound healing kinetic was determined by measuring the wound closure (percentage of initial wound area closed) on days 1, 15, 25, 36 and 43. The wound area was assessed, in a standardized manner, taken photographs perpendicularly to the wound surface, using the same illumination and placing a transparent plastic sterile ruler next to the wounds to introduce a metric reference in the pictures for further processing. The wound area was calculated using the image software ImageJ (see section 5.3). […]"}, "[6]": {"assay": "rhEGF plasma concentration (systemic absorption), ELISA", "type": "in vivo, pigs", "conditions": "30 minutes after first dose; free rhEGF 75 μg intralesionally", "procedure": "(§1) Treatment administration began 24 hours after wound induction (day 1 of the study) to allow primary homeostasis, platelet adhesion and aggregation, and activation of the coagulation cascade. The animals were randomly divided into three groups (n=2): (i) empty NLC, (ii) 20 μg rhEGF-NLC and (iii) 75 μg free rhEGF. Nanoparticles previously resuspended in 150 μl of vehicle (0.5% carboxymethylcellulose in 0.9% saline) were topically administered twice a week by spreading them over the wound bed. Free rhEGF, resuspended in 1 ml of vehicle, was intralesionally administered twice a week.\nIn addition, plasma samples from the rhEGF-NLC and free rhEGF treated animals were collected to assess rhEGF systemic absorption. rhEGF detection was performed by ELISA (human EGF ELISA development kit, PeproTech). Samples were drawn when the plasma rhEGF levels were expected to be higher. Thus, samples from the animals treated with rhEGF-NLC were collected on day 1 of the experiment (prior to the treatment administration), 4 hours and 24 hours after administration. Plasma samples from the animals treated with free rhEGF were obtained just after administration and 30 minutes after the first dose. […]"}, "[7]": {"system": "Large White pigs", "assay": "Histological assessment in pigs: wound maturity and healing quality (Cotran criteria)", "type": "in vivo", "conditions": "rhEGF-NLC 20 μg topically, free rhEGF 75 μg intralesionally", "procedure": "as §1\nComplete skin thickness biopsies from the centre of the unhealed wound to the healthy margin (2 mm) were collected using a sterile scalpel. Collected samples were immediately fixed in 4% formalin, embedded in paraffin and excised in 5-μm thick layers. Samples were stained with haematoxilyn-eosin (HE) for morphological observations. Biopsies were collected on day 15 for wounds 1, 2 and 3 and on days 25 and 43 for all of the wounds. On day 36, wound images were taken but no biopsies were collected not to delay wound healing.\nWound healing was determined in terms of the re-epithelization grade by measuring the newly formed epithelia, and wound maturity and healing quality according to the Cotran et al. (2000) criteria."}}, "data": [{"molecule": "free rhEGF: Non-encapsulated recombinant human epidermal growth factor; 75 μg of lyophilised rhEGF similar to commercialised Heberprot (protein, UniProt P01133 23-1207, looked up, Pro-epidermal growth factor, Non-encapsulated recombinant human epidermal growth factor; 75 μg of lyophilised rhEGF similar to commercialised Heberprot) Pro-epidermal growth factor: PQHWSCPEGTLAGNGNSTCVGPAPFLIFSHGNSIFRIDTEGTNYEQLVVDAGVSVIMDFHYNEKRIYWVDLERQLLQRVFLNGSRQERVCNIEKNVSGMAINWINEEVIWSNQQEGIITVTDMKGNNSHILLSALKYPANVAVDPVERFIFWSSEVAGSLYRADLDGVGVKALLETSEKITAVSLDVLDKRLFWIQYNREGSNSLICSCDYDGGSVHISKHPTQHNLFAMSLFGDRIFYSTWKMKTIWIANKHTGKDMVRINLHSSFVPLGELKVVHPLAQPKAEDDTWEPEQKLCKLRKGNCSSTVCGQDLQSHLCMCAEGYALSRDRKYCEDVNECAFWNHGCTLGCKNTPGSYYCTCPVGFVLLPDGKRCHQLVSCPRNVSECSHDCVLTSEGPLCFCPEGSVLERDGKTCSGCSSPDNGGCSQLCVPLSPVSWECDCFPGYDLQLDEKSCAASGPQPFLLFANSQDIRHMHFDGTDYGTLLSQQMGMVYALDHDPVENKIYFAHTALKWIERANMDGSQRERLIEEGVDVPEGLAVDWIGRRFYWTDRGKSLIGRSDLNGKRSKIITKENISQPRGIAVHPMAKRLFWTDTGINPRIESSSLQGLGRLVIASSDLIWPSGITIDFLTDKLYWCDAKQSVIEMANLDGSKRRRLTQNDVGHPFAVAVFEDYVWFSDWAMPSVMRVNKRTGKDRVRLQGSMLKPSSLVVVHPLAKPGADPCLYQNGGCEHICKKRLGTAWCSCREGFMKASDGKTCLALDGHQLLAGGEVDLKNQVTPLDILSKTRVSEDNITESQHMLVAEIMVSDQDDCAPVGCSMYARCISEGEDATCQCLKGFAGDGKLCSDIDECEMGVPVCPPASSKCINTEGGYVCRCSEGYQGDGIHCLDIDECQLGEHSCGENASCTNTEGGYTCMCAGRLSEPGLICPDSTPPPHLREDDHHYSVRNSDSECPLSHDGYCLHDGVCMYIEALDKYACNCVVGYIGERCQYRDLKWWELRHAGHGQQQKVIVVAVCVVVLVMLLLLSLWGAHYYRTQKLLSKNPKNPYEESSRDVRSRRPADTEDGMSSCPQPWFVVIKEHQDLKNGGQPVAGEDGQAADGSMQPTSWRQEPQLCGMGTEQGCWIPVSSDKGSCPQVMERSFHMPSYGTQTLEGGVEKPHSLLSANPLWQQRALDPPHQMELTQ", "values": [{"measurement": "cell proliferation compared with control groups", "setting": "[1]", "value": "greater cell proliferation"}, {"measurement": "Wound healing 4th day", "setting": "[2]", "value": "8.42 ± 3.96", "unit": "%"}, {"measurement": "Wound healing 7th day", "setting": "[2]", "value": "19.94 ± 5.21", "unit": "%"}, {"measurement": "Wound healing 11th day", "setting": "[2]", "value": "44.80 ± 2.64", "unit": "%"}, {"measurement": "Wound healing 14th day", "setting": "[2]", "value": "61.83 ± 2.99", "unit": "%"}, {"measurement": "Inflammation score Day 16", "setting": "[3]", "value": "2.75 ± 0.95"}, {"measurement": "Inflammation score Day 8", "setting": "[3]; listed as Free rhEGF", "value": "1.75 ± 0.71"}, {"measurement": "Inflammation score Day 8", "setting": "[3]; listed as rhEGF", "value": "2.13±0.64"}, {"measurement": "Re-epithelization score Day 8", "setting": "[4]", "value": "1.25±0.89"}, {"measurement": "Re-epithelization score Day 16", "setting": "[4]", "value": "2.71 ± 0.49"}, {"measurement": "Re-epithelization score Day 8", "setting": "[4]; listed as Free rhEGF", "value": "1.25 ± 0.89"}, {"measurement": "percentage of healed wounds", "setting": "[5]; day 25", "value": 40, "unit": "%"}, {"measurement": "wound closure state", "setting": "[5]; day 36", "value": "completely closed"}, {"measurement": "rhEGF plasma concentrations", "setting": "[6]", "value": "0.20 ± 0.01", "unit": "ng/mL"}, {"measurement": "extension of inflammatory tissue (Grade 2)", "setting": "[7]; day 15, FIG. 10A", "value": "mainly showed a diffuse acute inflammation"}, {"measurement": "wound maturity and healing quality (healing grade)", "setting": "[7]; day 25, FIG. 10B", "value": "still showed chronic inflammation"}]}]}
